Usually IC50 stands for the point on the concentration scale where inhibition reaches its midpoint. Lower therefore signals greater potency in that assay.

Like-named read-outs stand apart in the source and are kept apart here.

Twelve molecules from patent US20230250156A1 (QUADRUCEPT BIO, published 2023) can be followed below.

In experiment [1] the target is T1, SARS-CoV-2 RBD protein (SARS-CoV-2, UniProt P0DTC2 319-541).
Experiment [2] concerns the target T1, SARS-CoV-2 RBD protein. The source holds these as a separate data set.
Experiment [3] concerns the target T1, SARS-CoV-2 RBD protein. The experiment is described as follows: indirect binding ELISA, CoV-2 RBD coated.
Experiment [4] has as its target T1, SARS-CoV-2 RBD protein. This is another data set of the same source.
Experiment [5] addresses T1, SARS-CoV-2 RBD protein. The experiment is described as follows: competitive ELISA as for the GB Quads, ACE2 Ig coated. Background: In an ELISA, binding on a coated surface is turned into a signal by an enzyme label.

B1: Q177 (VHH QB-GB-TD) (VHH)
VHH: QVQLQESGGGLVQAGGSLRLSCAASGRTFSEYAMGWFRQAPGKEREFVATISWSGGSTYYTDSVKGRFTISRDNAKNTVYLQMNSLKPDDTAVYYCAAAGLGTVVSEWDYDYDYWGQGTQVTVSS
In turn, B1 gave a 50% inhibitory concentration (IC50) with SARS-CoV-2 RBD protein [1] of 64.9 pM.

B2: Q185 (VHH QB-GB dimeric TD) (VHH)
VHH: B1 VHH
In the case of B2, the IC50 with SARS-CoV-2 RBD protein [1] came out at 23.7 pM; in the experiment with SARS-CoV-2 RBD protein [2] it was 14.7 pM.

B3: Q179 (VHH QB-GB Ig-TD) (VHH)
VHH: B1 VHH
In turn, B3 had an IC50 in the experiment with SARS-CoV-2 RBD protein [1] of 32.8 pM.

B4: Q178 (VHH QB-GB IgG, non-Quad format) (VHH)
VHH: B1 VHH
B4 returned an IC50 with SARS-CoV-2 RBD protein [1] of 185 pM.

B5: QB-FE VHH (monovalent) (VHH)
VHH: QVQLVESGGGSVQAGGSLRLSCAASGTIAHIKYLGWFRQAPGKEREGVAALMTKWGQTYYADSVKGRFTVSLDNAKNTVYLQMNSLKPEDTALYYCAAASYGANFPLKASDYSYWGQGTQVTVS
Take B5: in the experiment with SARS-CoV-2 RBD protein [3], the binding result is listed as “no binding (tested: 100 nM)”.

B6: Q185B (tandem GB VHH-hinge-TD) (VHH)
chain: QVQLQESGGGLVQAGGSLRLSCAASGRTFSEYAMGWFRQAPGKEREFVATISWSGGSTYYTDSVKGRFTISRDNAKNTVYLQMNSLKPDDTAVYYCAAAGLGTVVSEWDYDYDYWGQGTQVTVSSGGSGGSQVQLQESGGGLVQAGGSLRLSCAASGRTFSEYAMGWFRQAPGKEREFVATISWSGGSTYYTDSVKGRFTISRDNAKNTVYLQMNSLKPDDTAVYYCAAAGLGTVVSEWDYDYDYWGQGTQVTVSSGGGGSGGGGSEPKSCDKTHTCPPCPAPELLGGKKKPLDGEYFTLQIRGRERFEMFRELNEALELKDAQAGKEPG
In the experiment with SARS-CoV-2 RBD protein [4], B6 showed an IC50 of 0.03 pM.

B7: QB-FE mIg-TD Quad (VHH)
VHH: QVQLVESGGGSVQAGGSLRLSCAASGTIAHIKYLGWFRQAPGKEREGVAALMTKWGQTYYADSVKGRFTVSLDNAKNTVYLQMNSLKPEDTALYYCAAASYGANFPLKASDYSYWGQGTQVTVSS
notes: as m58
The molecule B7 registered a 50% inhibitory concentration (IC50) in the experiment with SARS-CoV-2 RBD protein [5] of 80 pM. This counts as picomolar.

B8: Q180/Q182 (VHH QB-GB Fab-like Ig, non-Quad format) (VHH)
heavy: not shown
light: QVQLQESGGGLVQAGGSLRLSCAASGRTFSEYAMGWFRQAPGKEREFVATISWSGGSTYYTDSVKGRFTISRDNAKNTVYLQMNSLKPDDTAVYYCAAAGLGTVVSEWDYDYDYWGQGTQVTVSSGGGGSGGGGSKRTVAAPSVFIFPPSDEQLKSGTASVVCLLNNFYPREAKVQWKVDNALQSGNSQESVTEQDSKDSTYSLSSTLTLSKADYEKHKVYACEVTHQGLSSPVTKSFNRGEC
In turn, B8 returned an IC50 with SARS-CoV-2 RBD protein [1] of 77.8 pM. That is a picomolar value.

B9: Q181/Q182 (VHH QB-GB Fab-like Ig-TD) (VHH)
heavy: not shown
light: B8 light
The molecule B9 yielded an IC50 with SARS-CoV-2 RBD protein [1] of 15.4 pM.

B10: Q184/Q182 (VHH QB-GB Fab-like mIg-TD) (VHH)
heavy: QVQLQESGGGLVQAGGSLRLSCAASGRTFSEYAMGWFRQAPGKEREFVATISWSGGSTYYTDSVKGRFTISRDNAKNTVYLQMNSLKPDDTAVYYCAAAGLGTVVSEWDYDYDYWGQGTQVTVSSGGGGSGGGGSASTKGPSVFPLAPSSKSTSGGTAALGCLVKDYFPEPVTVSWNSGALTSGVHTFPAVLQSSGLYSLSSVVTVPSSSLGTQTYICNVNHKPSNTKVDKKVEPKSCDKTHTAPELLGGPSVFLFPPKPKDTLMISRTPEVTCVVVDVSHEDPEVKFNWYVDGVEVHNAKTKPREEQYNSTYRVVSVLTVLHQDWLNGKEYKCKVSNKALPAPIEKTISKAKGQPREPQVYTLPPSRDELTKNQVSLTCLVKGFYPSDIAVEWESNGQPENNYKTTPPVLDSDGSFFLYSKLTVDKSRWQQGNVFSCSVMHEALHNHYTQKSLSLSPGKKKKPLDGEYFTLQIRGRERFEMFRELNEALELKDAQAGKEPG
light: B8 light
B10 yielded an IC50 with SARS-CoV-2 RBD protein [1] of 34.2 pM.

B11: Q186/Q182 (VHH QB-GB Fab'-like TD, octavalent GB Quad) (VHH)
heavy: QVQLQESGGGLVQAGGSLRLSCAASGRTFSEYAMGWFRQAPGKEREFVATISWSGGSTYYTDSVKGRFTISRDNAKNTVYLQMNSLKPDDTAVYYCAAAGLGTVVSEWDYDYDYWGQGTQVTVSSGGGGSGGGGSASTKGPSVFPLAPSSKSTSGGTAALGCLVKDYFPEPVTVSWNSGALTSGVHTFPAVLQSSGLYSLSSVVTVPSSSLGTQTYICNVNHKPSNTKVDKKVEPKSCDKTHTCPPCPAPELLGGKKKPLDGEYFTLQIRGRERFEMFRELNEALELKDAQAGKEPG
light: B8 light
With B11, the IC50 was 14.8 pM with SARS-CoV-2 RBD protein [1] and 8.3 pM in the experiment with SARS-CoV-2 RBD protein [2].

B12: Q183/Q182 (VHH QB-GB Fab-like TD) (VHH)
heavy: QVQLQESGGGLVQAGGSLRLSCAASGRTFSEYAMGWFRQAPGKEREFVATISWSGGSTYYTDSVKGRFTISRDNAKNTVYLQMNSLKPDDTAVYYCAAAGLGTVVSEWDYDYDYWGQGTQVTVSSGGGGSGGGGSASTKGPSVFPLAPSSKSTSGGTAALGCLVKDYFPEPVTVSWNSGALTSGVHTFPAVLQSSGLYSLSSVVTVPSSSLGTQTYICNVNHKPSNTKVDKKVEPKSCDKTHTKKKPLDGEYFTLQIRGRERFEMFRELNEALELKDAQAGKEPG
light: B8 light
Turning to B12, the IC50 in the experiment with SARS-CoV-2 RBD protein [1] was determined as 31.2 pM. This lies in the picomolar range.
